The target of assay [1] is act-EaCDCL^S (proteolytically activated short CDC-like protein of Elizabethkingia anophelis) (Elizabethkingia anophelis). The assay can be described thus: cryo-EM structure; membrane-inserted pore on POPC liposomes; act-EaCDCL^L (3.95 uM) then act-EaCDCL^S (7.9 uM) at 37°C; focused refinement, C30 symmetry, 2.87 Å.
For assay [2] the target is unchanged. The assay can be described thus: cryo-EM structure; prepore-like oligomer stacked on the inserted pore; act-EaCDCL^L (3.95 uM) then act-EaCDCL^S (7.9 uM) on POPC liposomes at 37°C; focused refinement, C30 symmetry, 3.13 Å.

The term stoichiometry N denotes a count of units in the complex or per binding partner.

Take “act-EaCDCL^S (proteolytically activated short CDC-like protein of Elizabethkingia anophelis) (domain or fragment)”: the stoichiometry N in assay [1] and in assay [2] was 30 subunits in each case.

The values above are taken from article PMC11952106.
